Earlier results on 1 substance are cited in PMC5266585.

Data set [1] has as its target LRP1 principal ligand binding region fragments (Homo sapiens) (UniProt Q07954).
For data set [2], the target named is LRP1 CR4-CR5-CR6 (Homo sapiens) (UniProt Q07954).

By Kd is commonly meant the free concentration of one partner at which half of the binding sites on the other are occupied at equilibrium, for simple one-to-one binding. Regarding PAI-1 (from UniProt P05121), the Kd was < 3 nM in data set [1] and 1.5 nM in data set [2].
